Measurements as given in paper PMC7322011.

Assay: plasma membrane level, fixed-cell imaging
Conditions: glycan lost; control: wild type

B1: peripheral myelin protein 22 (PMP22): N41Q (protein)
parent chain: MLLLLLSIIVLHVAVLVLLFVSTIVSQWIVGNGHATDLWQNCSTSSSGNVHHCFSSSPNEWLQSVQATMILSIIFSILSLFLFFCQLFTLTKGGRFYITGIFQILAGLCVMSAAAIYTVRHPEWHLNSDYSYGFAYILAWVAFPLALLSGVIYVILRKRE
localisation_or_trafficking: increases
